This is an account of results in patent US20030049831A1 (published 2003).

The target in assay [1] is T1, human C5b-6 complexes (human, UniProt P01031 752-1676; P01031 19-673; P13671 22-934).
T1 construct: Complex of C5b and C6
Briefly: ELISA, Factor H coated at 50 to 0.4 pmol/well, C5b-6 detected with anti-C6 K1.115. Here is the method: (§1) Binding of C3b, C5b-6 and HSA to recombinant FHR-5 (panel A) or Factor H (panel B) was determined by ELISA.
(§2) Recombinant FHR-5 or Factor H (Sigma) were serially diluted 1:2 in 0.1 M carbonate buffer, pH 9.3. Duplicate wells in microtitre plates were incubated with dilutions of FHR-5 or Factor H from 50 pmol/well to 0.4 pmol/well. The plates were blocked and wells incubated with human C3b, C5b-6 or HSA at 10 μg/well. C3b was detected by incubation with polyclonal rabbit anti-C3 antibody (1:1000 dilution) followed by peroxidase-conjugated swine anti-rabbit antibody (1:2000 dilution). C5b-6 and HSA were detected using K1.115 (anti-C6) and anti-HSA monoclonal antibodies, respectively, (1:500 dilution) followed by peroxidase-conjugated rabbit anti-mouse antibody (1:2000 dilution). The ELISAs were developed with O-phenylenediamine dihydrochloride. The reaction was stopped with 4M H₂SO₄ and the optical density of the solution was measured at a wavelength of 492 nm using a Behring EL31 microplate reader.

Assay [2] has as its target human serum albumin (HSA) (human, UniProt P02768 25-609). Briefly: ELISA, rFHR-5 coated at 50 to 0.4 pmol/well, HSA detected with anti-HSA monoclonal antibody. How it is done:
as §1, §2

The target in the next assay is human C3b (human, UniProt P01024 749-1663; P01024 23-667). Description: ELISA, rFHR-5 coated at 50 to 0.4 pmol/well, C3b at 10 µg/well, detected with polyclonal anti-C3. Here is the method: as §1, §2
Chain of human C3b (P01024 749-1663 limits assumed, chain 1 of 2): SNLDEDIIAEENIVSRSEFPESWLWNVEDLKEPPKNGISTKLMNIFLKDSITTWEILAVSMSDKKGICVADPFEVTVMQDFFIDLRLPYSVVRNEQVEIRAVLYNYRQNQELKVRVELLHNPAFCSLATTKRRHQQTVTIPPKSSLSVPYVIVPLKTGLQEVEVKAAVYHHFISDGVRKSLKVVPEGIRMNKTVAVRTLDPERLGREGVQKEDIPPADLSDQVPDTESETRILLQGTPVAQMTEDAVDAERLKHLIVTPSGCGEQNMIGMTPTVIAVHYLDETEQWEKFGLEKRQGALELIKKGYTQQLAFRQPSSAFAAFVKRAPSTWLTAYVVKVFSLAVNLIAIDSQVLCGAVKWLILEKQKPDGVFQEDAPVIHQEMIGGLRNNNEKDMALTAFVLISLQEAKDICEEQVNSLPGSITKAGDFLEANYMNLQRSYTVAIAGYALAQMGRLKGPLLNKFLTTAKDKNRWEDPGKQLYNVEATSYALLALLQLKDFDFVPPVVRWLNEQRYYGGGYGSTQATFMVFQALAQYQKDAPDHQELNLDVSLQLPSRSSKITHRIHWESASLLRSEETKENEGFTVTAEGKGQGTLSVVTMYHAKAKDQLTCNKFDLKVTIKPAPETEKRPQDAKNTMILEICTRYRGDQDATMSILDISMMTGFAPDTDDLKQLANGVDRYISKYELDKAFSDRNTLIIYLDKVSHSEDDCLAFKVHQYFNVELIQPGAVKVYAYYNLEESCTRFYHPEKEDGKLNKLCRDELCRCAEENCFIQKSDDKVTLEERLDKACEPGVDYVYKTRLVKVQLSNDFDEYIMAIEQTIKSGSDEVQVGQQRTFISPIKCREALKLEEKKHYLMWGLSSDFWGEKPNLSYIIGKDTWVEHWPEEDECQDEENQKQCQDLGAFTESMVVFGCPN
Chain of human C3b (P01024 23-667 limits assumed, chain 2 of 2): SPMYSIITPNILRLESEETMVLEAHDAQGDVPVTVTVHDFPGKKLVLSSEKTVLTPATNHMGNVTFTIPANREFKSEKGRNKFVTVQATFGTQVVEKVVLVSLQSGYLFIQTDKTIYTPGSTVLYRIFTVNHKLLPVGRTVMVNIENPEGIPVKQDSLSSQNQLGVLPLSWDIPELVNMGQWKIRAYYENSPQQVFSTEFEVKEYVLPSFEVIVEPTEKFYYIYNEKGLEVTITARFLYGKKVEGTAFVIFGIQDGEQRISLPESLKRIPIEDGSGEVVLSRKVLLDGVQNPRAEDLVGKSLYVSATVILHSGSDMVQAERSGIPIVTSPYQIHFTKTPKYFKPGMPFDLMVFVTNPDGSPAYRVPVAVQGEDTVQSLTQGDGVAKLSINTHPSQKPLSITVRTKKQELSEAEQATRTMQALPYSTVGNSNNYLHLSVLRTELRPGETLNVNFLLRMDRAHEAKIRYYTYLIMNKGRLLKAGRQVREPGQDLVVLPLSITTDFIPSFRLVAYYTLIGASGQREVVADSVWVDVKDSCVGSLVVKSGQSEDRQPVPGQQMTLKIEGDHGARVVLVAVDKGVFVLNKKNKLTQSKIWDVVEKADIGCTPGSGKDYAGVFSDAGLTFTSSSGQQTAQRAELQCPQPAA
The target in assay [3] is T1, human C5b-6 complexes. Description: ELISA, rFHR-5 coated at 50 to 0.4 pmol/well, C5b-6 detected with anti-C6 K1.115. Here is the method: as §1, §2

T1 sequence (P01031 752-1676 limits assumed, chain 1 of 3): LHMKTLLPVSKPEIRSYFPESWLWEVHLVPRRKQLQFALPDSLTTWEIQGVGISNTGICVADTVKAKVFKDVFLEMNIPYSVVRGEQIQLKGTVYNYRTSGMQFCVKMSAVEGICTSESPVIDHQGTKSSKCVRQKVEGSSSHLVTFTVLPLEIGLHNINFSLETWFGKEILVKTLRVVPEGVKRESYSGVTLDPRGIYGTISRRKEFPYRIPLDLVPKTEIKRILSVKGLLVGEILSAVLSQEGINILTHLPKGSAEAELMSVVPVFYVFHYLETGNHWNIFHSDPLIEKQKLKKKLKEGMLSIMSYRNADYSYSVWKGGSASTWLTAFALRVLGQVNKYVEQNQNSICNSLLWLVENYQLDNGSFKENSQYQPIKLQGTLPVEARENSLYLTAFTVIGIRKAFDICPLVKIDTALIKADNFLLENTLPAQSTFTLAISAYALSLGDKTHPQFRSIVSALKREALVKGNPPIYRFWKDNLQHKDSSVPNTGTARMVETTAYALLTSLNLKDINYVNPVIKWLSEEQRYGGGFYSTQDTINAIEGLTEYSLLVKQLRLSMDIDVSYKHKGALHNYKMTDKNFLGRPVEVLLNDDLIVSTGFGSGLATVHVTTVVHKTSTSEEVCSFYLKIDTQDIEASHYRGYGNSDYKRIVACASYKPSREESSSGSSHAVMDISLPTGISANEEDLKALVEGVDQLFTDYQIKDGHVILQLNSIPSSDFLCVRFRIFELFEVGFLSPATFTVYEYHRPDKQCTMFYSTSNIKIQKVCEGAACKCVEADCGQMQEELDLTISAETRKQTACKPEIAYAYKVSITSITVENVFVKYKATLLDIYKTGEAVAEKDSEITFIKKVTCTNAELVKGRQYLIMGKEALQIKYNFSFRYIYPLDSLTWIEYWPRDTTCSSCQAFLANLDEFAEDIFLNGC
T1 sequence (P01031 19-673 limits assumed, chain 2 of 3): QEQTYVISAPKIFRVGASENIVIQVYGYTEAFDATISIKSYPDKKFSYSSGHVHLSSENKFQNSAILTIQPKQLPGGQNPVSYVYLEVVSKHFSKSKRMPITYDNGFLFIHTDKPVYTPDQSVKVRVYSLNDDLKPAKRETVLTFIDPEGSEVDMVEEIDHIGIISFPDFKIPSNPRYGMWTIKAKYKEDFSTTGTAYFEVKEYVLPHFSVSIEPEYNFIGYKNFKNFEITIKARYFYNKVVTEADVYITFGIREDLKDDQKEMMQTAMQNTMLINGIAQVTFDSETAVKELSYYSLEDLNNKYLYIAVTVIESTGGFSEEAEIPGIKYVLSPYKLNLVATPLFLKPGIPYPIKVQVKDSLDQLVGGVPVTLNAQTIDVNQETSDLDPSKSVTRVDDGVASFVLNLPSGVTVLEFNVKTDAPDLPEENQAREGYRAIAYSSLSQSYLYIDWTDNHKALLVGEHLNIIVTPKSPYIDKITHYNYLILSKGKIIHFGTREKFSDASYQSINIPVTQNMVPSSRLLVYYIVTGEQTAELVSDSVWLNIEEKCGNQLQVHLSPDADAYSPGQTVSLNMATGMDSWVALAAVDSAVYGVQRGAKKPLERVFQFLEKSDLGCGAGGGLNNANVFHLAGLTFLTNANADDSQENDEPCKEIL
T1 sequence (P13671 22-934 limits assumed, chain 3 of 3): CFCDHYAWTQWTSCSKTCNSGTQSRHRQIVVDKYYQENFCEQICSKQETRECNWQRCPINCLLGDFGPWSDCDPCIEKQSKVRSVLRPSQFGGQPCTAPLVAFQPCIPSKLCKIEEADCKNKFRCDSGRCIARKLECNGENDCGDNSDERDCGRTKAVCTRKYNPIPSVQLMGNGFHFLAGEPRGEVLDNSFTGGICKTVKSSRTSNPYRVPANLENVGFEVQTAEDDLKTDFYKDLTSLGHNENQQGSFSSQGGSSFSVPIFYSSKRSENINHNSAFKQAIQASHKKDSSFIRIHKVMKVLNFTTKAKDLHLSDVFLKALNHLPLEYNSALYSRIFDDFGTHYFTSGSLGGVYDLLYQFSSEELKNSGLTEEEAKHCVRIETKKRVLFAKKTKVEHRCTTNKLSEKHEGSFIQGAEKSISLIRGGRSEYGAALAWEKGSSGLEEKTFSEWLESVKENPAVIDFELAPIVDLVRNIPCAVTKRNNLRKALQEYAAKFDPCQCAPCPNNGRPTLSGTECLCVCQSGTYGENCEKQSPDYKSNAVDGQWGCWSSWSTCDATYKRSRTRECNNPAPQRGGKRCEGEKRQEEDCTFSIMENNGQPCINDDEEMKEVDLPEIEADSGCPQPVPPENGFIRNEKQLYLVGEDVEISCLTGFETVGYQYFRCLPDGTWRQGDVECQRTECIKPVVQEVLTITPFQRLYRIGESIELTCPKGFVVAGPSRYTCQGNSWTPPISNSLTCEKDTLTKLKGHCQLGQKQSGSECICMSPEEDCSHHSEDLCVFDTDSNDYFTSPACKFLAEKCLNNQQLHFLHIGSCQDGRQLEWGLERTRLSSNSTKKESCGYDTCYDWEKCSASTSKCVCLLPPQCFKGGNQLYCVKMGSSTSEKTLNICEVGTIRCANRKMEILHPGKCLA
Chain of human serum albumin (HSA) (P02768 25-609 limits assumed): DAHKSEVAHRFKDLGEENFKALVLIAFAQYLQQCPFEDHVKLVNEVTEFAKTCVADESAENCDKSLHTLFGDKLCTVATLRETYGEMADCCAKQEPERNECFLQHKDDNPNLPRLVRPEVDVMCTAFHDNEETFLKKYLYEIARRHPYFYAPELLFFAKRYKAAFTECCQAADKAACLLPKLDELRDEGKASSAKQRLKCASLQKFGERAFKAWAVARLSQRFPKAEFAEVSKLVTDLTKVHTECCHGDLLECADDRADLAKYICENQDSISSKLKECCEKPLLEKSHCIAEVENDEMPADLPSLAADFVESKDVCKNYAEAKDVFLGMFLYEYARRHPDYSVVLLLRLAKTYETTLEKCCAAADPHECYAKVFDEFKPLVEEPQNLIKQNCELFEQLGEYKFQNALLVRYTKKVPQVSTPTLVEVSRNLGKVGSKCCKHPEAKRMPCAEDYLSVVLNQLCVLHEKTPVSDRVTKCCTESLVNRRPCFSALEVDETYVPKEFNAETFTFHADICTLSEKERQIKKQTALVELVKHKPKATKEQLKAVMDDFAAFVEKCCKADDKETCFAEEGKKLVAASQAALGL

B1: Factor H (Sigma) (other, UniProt P08603 19-1231, looked up)
chain: EDCNELPPRRNTEILTGSWSDQTYPEGTQAIYKCRPGYRSLGNVIMVCRKGEWVALNPLRKCQKRPCGHPGDTPFGTFTLTGGNVFEYGVKAVYTCNEGYQLLGEINYRECDTDGWTNDIPICEVVKCLPVTAPENGKIVSSAMEPDREYHFGQAVRFVCNSGYKIEGDEEMHCSDDGFWSKEKPKCVEISCKSPDVINGSPISQKIIYKENERFQYKCNMGYEYSERGDAVCTESGWRPLPSCEEKSCDNPYIPNGDYSPLRIKHRTGDEITYQCRNGFYPATRGNTAKCTSTGWIPAPRCTLKPCDYPDIKHGGLYHENMRRPYFPVAVGKYYSYYCDEHFETPSGSYWDHIHCTQDGWSPAVPCLRKCYFPYLENGYNQNYGRKFVQGKSIDVACHPGYALPKAQTTVTCMENGWSPTPRCIRVKTCSKSSIDIENGFISESQYTYALKEKAKYQCKLGYVTADGETSGSITCGKDGWSAQPTCIKSCDIPVFMNARTKNDFTWFKLNDTLDYECHDGYESNTGSTTGSIVCGYNGWSDLPICYERECELPKIDVHLVPDRKKDQYKVGEVLKFSCKPGFTIVGPNSVQCYHFGLSPDLPICKEQVQSCGPPPELLNGNVKEKTKEEYGHSEVVEYYCNPRFLMKGPNKIQCVDGEWTTLPVCIVEESTCGDIPELEHGWAQLSSPPYYYGDSVEFNCSESFTMIGHRSITCIHGVWTQLPQCVAIDKLKKCKSSNLIILEEHLKNKKEFDHNSNIRYRCRGKEGWIHTVCINGRWDPEVNCSMAQIQLCPPPPQIPNSHNMTTTLNYRDGEKVSVLCQENYLIQEGEEITCKDGRWQSIPLCVEKIPCSQPPQIEHGTINSSRSSQESYAHGTKLSYTCEGGFRISEENETTCYMGKWSSPPQCEGLPCKSPPEISHGVVAHMSDSYQYGEEVTYKCFEGFGIDGPAIAKCLGEKWSHPPSCIKTDCLSLPSFENAIPMGEKKDVYKAGEQVTYTCATYYKMDGASNVTCINSRWTGRPTCRDTSCVNPPTVQNAYIVSRQMSKYPSGERVRYQCRSPYEMFGDEEVMCLNGNWTEPPQCKDSTGKCGPPPPIDNGDITSFPLSVYAPASSVEYQCQNLYQLEGNKRITCRNGQWSEPPKCLHPCVISREIMENYNIALRWTAKQKLYSRTGESVEFVCKRGYRLSSRSHTLRTTCWDGKLEYPTCAKR
notes: Bought protein; also called FH
As to B1, in the assay with human C5b-6 complexes [1], the binding result is “no binding (tested: 10 µg/well)”.

B2: recombinant FHR-5 (rFHR-5), polyhistidine-tagged, expressed in insect cells (other)
chain: EGTLCDFPKIHHGFLYDEEDYNPFSQVPTGEVFYYSCEYNFVSPSKSFWTRITCTEEGWSPTPKCLRMCSFPFVKNGHSESSGLIHLEGDTVQIICNTGYSLQNNEKNISCVERGWSTPPICSFTKGECHVPILEANVDAQPKKESYKVGDVLKFSCRKNLIRVGSDSVQCYQFGWSPNFPTCKGQVRSCGPPPQLSNGEVKEIRKEEYGHNEVVEYDCNPNFIINGPKKIQCVDGEWTTLPTCVEQVKTCGYIPELEYGYVQPSVPPYQHGVSVEVNCRNEYAMIGNNMITCINGIWTELPMCVATHQLKRCKIAGVNIKTLLKLSGKEFNHNSRIRYRCSDIFRYRHSVCINGKWNPEVDCTEKREQFCPPPPQIPNAQNMTTTVNYQDGEKVAVLCKENYLLPEAKEIVCKDGRWQSLPRCVESTAYCGPPPSINNGDTTSFPLSVYPPGSTVTYRCQSFYKLQGSVTVTCRNKQWSEPPRCLDPCVVSEENMNKNNIQLKWRNDGKLYAKTGDAVEFQCKFPHKAMISSPPFRAICQEGKFEYPICE
notes: Insert amplified from immediately downstream of the signal peptide-encoding region to the end of the ORF (mature FHR-5, 551 amino acids); also called His-tagged recombinant protein; not shown: 10-histidine tag coded by vector pFASTBAC1-His10+ (after a gp67 signal peptide)
As for B2, the binding result in assay [2] was “no binding (tested: 10 µg/well)”; in the assay with human C3b, “binds”; with human C5b-6 complexes [3], “no binding (tested: 10 µg/well)”.
